# Entries after “also recorded” stand apart in the source; their conditions may differ.
# T1: CD39 enzymatic activity (Homo sapiens, UniProt P49961)
# T1 construct: genetically modified to express human CD39 in place of its murine counterpart mouse CD39; from tissue; host or cells: tissues (MCA205 tumours) of huCD39KI mice treated with moIPH5201
# T1 sequence (P49961 1-510): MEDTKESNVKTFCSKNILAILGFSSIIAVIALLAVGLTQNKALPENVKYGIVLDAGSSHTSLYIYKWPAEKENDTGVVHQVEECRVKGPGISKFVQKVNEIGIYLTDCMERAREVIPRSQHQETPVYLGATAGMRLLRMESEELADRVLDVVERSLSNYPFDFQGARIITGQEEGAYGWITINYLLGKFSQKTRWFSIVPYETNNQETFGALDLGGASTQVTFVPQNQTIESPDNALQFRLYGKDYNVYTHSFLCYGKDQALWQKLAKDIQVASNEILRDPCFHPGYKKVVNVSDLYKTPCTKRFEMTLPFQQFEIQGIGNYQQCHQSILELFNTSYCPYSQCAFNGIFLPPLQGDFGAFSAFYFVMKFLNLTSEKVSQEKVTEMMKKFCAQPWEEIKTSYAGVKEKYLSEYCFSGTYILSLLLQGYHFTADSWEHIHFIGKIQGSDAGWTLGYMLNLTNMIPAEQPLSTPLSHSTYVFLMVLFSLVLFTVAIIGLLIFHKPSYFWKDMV
# Legend:
# CD39 enzymatic activity = molecular target: T1, CD39 enzymatic activity; test: Wachstein-Meisel CD39 enzyme assay on tissues of treated mice; format: in vivo, huCD39KI mice; settings: tissues from molPH5201-treated animals; brown color indicates enzyme activity
# Method: (§1) Human CD39 expression on MCA205 tumors harvested on day 16 post engraftment was evaluated by IHC with EPR20627 clone from Abcam B&C. MCA205 tumors were engrafted in huCD39KI mice. On day 7 and 14 post tumor implantation, they were treated with molPH5201 (20 mg/kg) or isotype control. On day 16, tumors were harvested. Results are shown in FIG. 4, left hand panel, showing that a significant percentage of cells express CD39.
# Blockade of CD39 enzymatic activity was determined using the Wachstein-Meisel CD39 enzyme assay (brown color indicates enzyme activity).
# MC38 cancer cell line = test: MC38 tumor growth in huCD39KI mice (gemcitabine +/- anti-PD-L1 +/- molPH5201); format: in vivo, human CD39 knock-in (huCD39KI) mice
# Method: In vivo experiments were performed in human CD39 knock-in (huCD39KI) mice, genetically modified to express human CD39 in place of its murine counterpart mouse CD39. These mice were sub-cutaneously (s.c.) engrafted with the MC38 cancer cell line. Mice bearing established tumors were dosed with isotype control (IC) antibodies, anti-human CD39 antibody (molPH5201, described above), gemcitabine chemotherapy and anti-mouse PD-L1 antibody (an antibody that binds murine PD-L1 having an Fc domain with amino acid substitutions to eliminate binding to mouse Fcγ receptors.
# Male and female huCD39KI mice were engrafted subcutaneously (s.c.) with 1×10^6 MC38 cancer cells. Treatments were initiated after mouse randomization. Mice were treated twice a week for two weeks with gemcitabine (25 mg/kg) or PBS (at day 8, 11, 15 and 18 after cell engraftment) and once a week for four weeks with either anti-human CD39 antibody (molPH5201) or the corresponding isotype control (IC) antibody (400 μg/mouse).
# Randomization of mice into four groups was performed on day 7 post tumor cell engraftment, at a mean tumor volume of 72 mm^3±27 mm^3 with individual tumor volumes comprised between 37 and 130 mm^3.
# (§2) Male and female huCD39KI mice were engrafted s.c. with 1×10^6 MC38. Treatments were initiated after mouse randomization. Mice were treated twice a week for two weeks with gemcitabine (25 mg/kg) or PBS, twice a week for three weeks with either anti-mouse PD-L1 antibody or the corresponding IC antibody (200 μg/mouse) and once a week for four or five weeks depending on the experiment with either anti-human CD39 antibody (molPH5201) or the corresponding IC antibody (400 μg/mouse). Mouse randomization into five groups was performed on day 7 post tumor cell engraftment at a mean tumor volume of 62 mm^3±23 mm^3 with individual tumor volumes comprised between 31 and 117 mm^3.
# as §2, with “As in Experiment 1, male” for “Male”, “64” for “62”, “115” for “117”
# as §2, with “As in Experiments 1 and 2, male” for “Male”, “engraftment,” for “engraftment”, “74 mm^3±21” for “62 mm^3±23”, “40” for “31”, “121” for “117”
# The three experiments were pooled and results are shown in FIG. 9, showing Tumor growth of MC38 tumor in huCD39KI mice post treatment with gemcitabine+/−anti-PD-L1+/−molPH5201. MC38 tumor-bearing huCD39KI mice were randomized on day 7 and then treated as indicated with 25 mg/kg ip of gemcitabine or PBS, 200 μg ip of anti-mouse PD-L1 antibody or corresponding isotype control antibody and with 400 μg iv of molPH5201 or corresponding IC antibody. Graphs show tumor growth in each individual (n=31/group). CR: Complete Response.
# [1] = system: adenosine in MCA205 tumors; test: Intratumoral adenosine in MCA205 tumors in huCD39KI mice (LC-MS/MS); format: in vivo, human CD39 knock-in (huCD39KI) mice; settings: molPH5201 20 mg/kg on day 7 and 14; tumors harvested day 16; vs isotype control; FIG. 4
# Method: Expression of human CD39 in MCA205 tumors engrafted in human CD39 knock-in (huCD39KI) mice was assessed, followed by measure of intratumoral levels of adenosine after in vivo treatment with molPH5201, an antibody having the VH and VL or SEQ ID NO NOS: 8 and 9 and murine constant domains including an Fc domain with amino acid substitutions to eliminate binding to mouse Fcγ receptors, in order to evaluate the reduction of adenosine levels in tumors by molPH5201 can reduce in vivo.
# as §1
# Quantification of adenosine in the harvested MCA205 tumors was performed using pre-column derivatization and liquid chromatography-mass spectrometry (LC-MS/MS) as described by Goodwin et al. 2019 Anal Biochem 568:78-88.
molecule,measurement,setting,value
"molPH5201: antibody having the VH and VL of SEQ ID NOS: 8 and 9 and murine constant domains, Fc substituted to eliminate mouse Fcγ receptor binding (antibody, V domains shown, murine constant domains, Fc-silenced) VH: QVQLVQSGAEVKKPGASVKVSCKASGYTFTDYNMHWVRQAPGQRLEWIGYIVPLNGGSTFNQKFKGRATITVDTSARTAYMELSSLRSEDTAVYYCARGGTRFAYWGQGTLVTVSS VL: DIVMTQSPDSLAVSLGERATINCRASESVDNFGVSFMYWFQQKPGQPPKLLIYGASNQGSGVPDRFSGSGSGTDFTLTISSLQAEDVAVYYCQQTKEVPYTFGGGTKVEIK",CD39 enzymatic activity in tissues,CD39 enzymatic activity,decreased CD39 enzymatic activity
same,"number of complete response when combined with gemcitabine, in comparison to gemcitabine alone",MC38 cancer cell line; Experiment 1 (FIG. 6),increased the number of complete response
same,improvement of anti-tumor effect over the comparator named in the value,"MC38 cancer cell line; Experiment 1 (FIG. 6), triple vs gemcitabine alone p<0.05 when control group was excluded",Neither anti-PD-L1 nor molPH5201 improved the anti-tumor effect of gemcitabine; also recorded: did not statistically significantly improve gemcitabine+anti-PD-L1 efficacy
same,improvement of anti-tumor efficacy over the comparator named in the value,"MC38 cancer cell line; Experiment 2 (FIG. 7), difference marginally significant, p<0.1, control group excluded",tended to improve the anti-tumor efficacy of the combination gemcitabine+anti-PD-L1
same,number of complete response (CR) on combination,MC38 cancer cell line; Experiment 3 (FIG. 8),did not increase the number of CR
same,improvement of anti-tumor effect over the comparator named in the value,"MC38 cancer cell line; Experiment 3 (FIG. 8), triple vs gemcitabine alone marginally significant p<0.1, control group excluded",Neither anti-PD-L1 nor molPH5201 improved the anti-tumor effect of gemcitabine; also recorded: did not statistically significantly improve gemcitabine+anti-PD-L1 efficacy
same,improvement of the anti-tumor efficacy of gemcitabine,MC38 cancer cell line; gemcitabine +/- molPH5201 experiment (FIG. 5),did not improve the anti-tumor efficacy of gemcitabine
same,tumor growth compared to the control group,"MC38 cancer cell line; gemcitabine +/- molPH5201 experiment (FIG. 5), gemcitabine 25 mg/kg, molPH5201 400 μg/mouse, p<0.001 where significant",did not modify tumor growth
same,improvement of anti-tumor efficacy over the comparator named in the value,"MC38 cancer cell line; pooled analysis of three experiments (FIG. 9), n=31/group, p<0.05 where improved, linear-mixed effect model",neither anti-PD-L1 nor molPH5201 improved the anti-tumor effect of gemcitabine; also recorded: improved the anti-tumor efficacy of the gemcitabine+anti-PD-L1 combination
same,intratumoral adenosine compared to control,[1],less intratumoral adenosine

# Reference: patent US20260191954A1, “COMPOSITIONS AND METHODS FOR NEOADJUVANT TREATMENT IN CANCER” (INNATE PHARMA, priority 2022, published 2026)
